Source: the supplement of paper PMC9170038

Experiments:
[1] = system: MS2 coat protein; test: apparent KD of MS2 coat protein; higher = weaker reporter binding; conditions: Eterna round: R101
Procedure: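 RNA-MaP: designed FMN/MS2 RNA switches (84 nt design region) are transcribed on-chip within common flanks and titrated with SNAP-549-labelled MS2 coat protein (about 1-3000 nM) in 100 mM Tris pH 7.5, 80 mM KCl, 4 mM MgCl2, without or with 200 uM FMN. Median apparent KD per design; activation ratio = KD,OFF / KD,ON.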

[2] = system: MS2 coat protein; test: apparent KD of MS2 coat protein, switch OFF state (with FMN for OFF switches, without FMN for ON switches); designed switch direction (-1 OFF switch, 1 ON switch): 1; higher = weaker reporter binding; conditions: FMN input: 0 or 200 uM; Eterna round: R93 (includes R88 designs)
Outline: (§1)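 Titrations with SNAP-549-labelled MS2 coat protein ran in twofold steps from 0.7 or 1.5 nM to 3 µM, each step taking 0.8–1.5 h at the start and 10–20 min toward the end. The targets were designed RNA switches transcribed on-chip from Illumina sequencing clusters, held in 100 mM Tris-HCl pH 7.5, 80 mM KCl, 4 mM MgCl2, without or with constant ligand. Apparent KD was taken per design as the median of normalised cluster binding-curve fits.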

[3] = system: MS2 coat protein; test: apparent KD of MS2 coat protein, switch ON state; designed switch direction (-1 OFF switch, 1 ON switch): 1; higher = weaker reporter binding; conditions: FMN input: 0 or 200 uM; Eterna round: R93 (includes R88 designs)
Outline: as §1

Sequence	apparent KD of MS2 coat protein ([1]; input ligand: FMN 200 uM) [µM]	apparent KD of MS2 coat protein ([1]; input ligand: none) [µM]	apparent KD of MS2 coat protein [2] [µM]	apparent KD of MS2 coat protein [3] [µM]
AAAUAACUUGAAGGAUAUCAGGGUGCACCUCAGUAAAACUGAGGUGCACCCUGAGAAGGUCGAGGAUCACCCGACCUAAAUAAA [#SharedSequence SLExNG1: 6-2] (puzzle (switch architecture): Small Loop Exclusion NG 1)	0.00727	0.00576		
AGACCUGCUCAGAAGGAGAGUGCGAGGCUGGAAACAGCCUCGAACUAGAAACCUAGAGGAUCACCCUAGGAUAUGAGCAGGUCA [#SharedSequence - IExNG2: 10] (puzzle (switch architecture): Inverted Exclusion NG 2)	0.00558	0.00551		
UUACUCAUGUAAGGAUAUGCAGCCGAAACGGCUGCAGAAGGUACUAUAAUACAUGAGGAUCACCCAUGUAAAAUAUAUAAAGUU (puzzle (switch architecture): Same State NG 1)	0.0183	0.0293		
GGAUAGGACAGAGGAUAUACGUGCUAGAGAUACUAGCAAAAUUUCCUCACAUGAGGAUCACCCAUGUAGAAGGCUGUCCUAUCG (puzzle (switch architecture): Exclusion NG 2)	0.415	0.0157		
CGGGAUAUGAAGGGCGAAAGCCCACAUGAGGAUCACCCAUGUAGAAGGCGGGCCGCAACGCGGCCCGAGGAUAUACAAUAUCCA [#my 7th design] (puzzle (switch architecture): Inverted Exclusion NG 3)	0.0131	0.00905		
UAAAUAGAUCCUAGAGGAUCACCCUAGGAUAUCACCGUCGAGGUGCCAUAAUGGCACCUCGACGGUGAGAAGGAGGAAAAUAAA [#SharedSequence - SLExNG3: 5] (puzzle (switch architecture): Small Loop Exclusion NG 3)	0.0218	0.0115		
CGUAGUCCGUAGAAGGGUGACAUGAGGAUCACCCAUGUGCGAGCGGAGGGAGUCAGCGGCUCGCCACAGGAUAUACGGAGCACG [Eniszabe] (puzzle (switch architecture): Inverted Same State NG 2)	0.0288	0.137		
CCCGGUGACUAGAAGGCGCCACAUGAGGAUCACCCAUGUAUCAAAGACCGGUGAUUGCCGACGGGCGAGGAUAUAGGUGCGACG [EternaBot1154] (puzzle (switch architecture): Inverted Exclusion NG 2)		0.00819		
ACACGUCGUGAGAAGGAGGAUCACCCUUUCGAAAGAAAGAGCCACCGUGAAAACGGUGGCAAAUUCUAGGAUAUCACGACGUGA [#SharedSequence - IExNG2: 2] (puzzle (switch architecture): Inverted Exclusion NG 2)	0.363	0.23		
AAAUAACUUGAAGGAUAUCAGGGUGCACCUCAGUAAAACUGAGGUGCACCCUGAGAAGGUCGAGGAUCACCCGACCUAGUGAAA [#SharedSequence SLExNG1: 7-2] (puzzle (switch architecture): Small Loop Exclusion NG 1)	0.00719	0.0068		
GGUCGACUUCAAGGAUAUGGACUGCAAAGCAGUCCAGAAGGUGAGGAUCACCCAUCUACGGUCAGGAAACUGACCGAUCGACCA [#SharedSequence - ExNG1-8] (puzzle (switch architecture): Exclusion NG 1)	0.117	0.0862		
GGAGAUACAUGAGGAUCACCCAUGUAGGAUAUCGGGCCCGGGCCCGGCGAAAGCCGGGCCCGGGCCGAGAAGGGCGUACACACC [#LOL-2] (puzzle (switch architecture): Small Loop Exclusion NG 3)	0.00579	0.0073		
UUGGACGUCGUAGGAUAUGUAGGAUAUUCCUACAUGAGGAUCACCCAUGUUGACAUGGAAGAAGGACAGAAGGACGAUGUCCAU (puzzle (switch architecture): Same State NG 2)	0.00456	0.217		
GGUGCACGCACAGGAUAUCCGGCGAAGCUCGUCGGAGAAGGGUGACAUGAGGAUCACCCAUGUACGUGCAGCCAAGUUUGAGAG [Laaar] (puzzle (switch architecture): Same State NG 1)	0.0476	0.0268		
AGGAAACAUGAGGAUCACCCAUGUAAAAAUAUGGGAGGAUAUACAAAGACGAAAGUGAGAGUAGAAGGCCUAAAAG [Garnet 18]			0.124	0.0356
AAAAAACAUGAGGAUCACCCAUGUCUUCGGACAUGAGGAUAUGUACAGACUUCGGUCUGUACAGAAGGCAUGUAAA [SS1 - 1017]			0.0612	0.323
CGAAGACAUGAGGAUCACCCAUGUGGGAAUAUGGGAGGAUAUACAAAGACGAGAGUCAGAGUAGAAGGCCUAGGAG [salish99-ss1-106]			0.0593	0.0402
GUUGAACAUGAGGAUCACCCAUGUCUCAACAGUCAAGGAUAUGGGUCAUGCAGAUGAAUACCAGAAGGUGAAUAAA [Zaorxe]			0.0336	0.0158

Sequence	apparent KD of MS2 coat protein ([1]; input ligand: FMN 200 uM) [µM]	apparent KD of MS2 coat protein ([1]; input ligand: none) [µM]	apparent KD of MS2 coat protein [2] [µM]	apparent KD of MS2 coat protein [3] [µM]
AAAGAAGAAAGCGAGGAUAUGGAUGGGUAAACAUGAGGAUCACCCAUGUAUAAGAAAGAAAGAAACCAGAAGGCGCAAAAGAAAA [Khenemmaatre Hakor]			0.0937	0.07
GAAAAACAUGAGGAUCACCCAUGUAGAAAUAUGGGAGGAUAUACAAUGACGAAAGUCAAUGUAGAAGGCCUGAUAG [JL S1 M-MoE mod 4]			0.0742	0.0257
AAACCACAUGAGGAUCACCCAUGUAGAAAUAUGGGAGGAUAUACGAAGACGAAAGUCAAAGUAGAAGGCCUAAAAG [saturn 1]			0.0724	0.0245
AACAAUCUAUCUGAGGAUAUGUGUCGAAAGACAUGAGGAUCACCCAUGUCAAAACAUGGGAAGAUACAGAAGGCAGAUAGAUUGA [SS2: 1159]			0.417	0.0799
AAAAAACAUGAGGAUCACCCAUGUAAAAAAAACACAGGAUAUCCCUUUUUUAAAUAAAAAGGAGAAGGGUGAAAAA [Nob's Hobby 8 - Jieux - Same State 1]			0.0309	0.0241
AACAAUCUAUCUGAGGAUAUCAUUAAAAAGACAUGAGGAUCACCCAUGUAGCAGGAAACUGCAUAUGAGAAGGCAGAUAGAUUGA [SS2: 1123]			0.0139	0.0125
AAAAAACAUGAGGAUCACCCAUGUGCAAAAUUCGCAGGAUAUUCCUUUUUUAAAUGGGAGGGAGAAGGGUGUAAAA [Nob's Hobby 19 - Jieux - Same State 1]			0.0345	0.0219
AACAAUCUAUCUGAGGAUAUCAUUUCAAAGACAUGAGGAUCACCCAUGUGCAGGAAAACUGCAAAUGAGAAGGCAGAUAGAUUGA [SS2: 1107]			0.0145	0.0103
GUUAGGAAGAGAGAGGAUAUCCAAAGGAAAACAUGAGGAUCACCCAUGUAAAAGGUAGGAAAUUGGGAGAAGGCUCAAGAGAGAG [salish99-ss2-079]			0.0375	0.0319
AACAAUCUAUCUGAGGAUAUGUGUCGAAAGACAUGAGGAUCACCCAUGUGAAAACAUGAAAAAUCACAGAAGGCAGAUAGAUUGA [SS2: 1143]			0.146	0.0458
ACUAUACAUGAGGAUCACCCAUGUCAGGUGGGACUAGGAUAUCAAAAGCCAGAGUAAGAAUGAGAAGGAGUAGAAA [JR_SS001_Sub304]			0.0693	0.0664
AACAAUCUAUCUGAGGAUAUGUGUCAAAAGACAUGAGGAUCACCCAUGUAAAAACAUGGGAAAACACAGAAGGCAGAUAGAUUGA [SS2: 1151]			0.184	0.369
AAAAAACAUGAGGAUCACCCAUGUCGAAAGACGUGAGGAUAUGUACAGACUUCGGUCUGUACAGAAGGCAUGUAAA [SS1 - 1054]			1.11	0.146
AGAAAUAAAAGAGAGGAUAUCCAAAAGGGAACAUGAGGAUCACCCAUGUAAAUGAAAAUAAAAUGGGAGAAGGCUCAAAAUAAAG [80% More Helter Skelter 2]			0.085	0.0546
AAUAAUUAUAUGGAGGAUAUCCGUAAUAAGACAUGAGGAUCACCCAUGUAAUAAGGGUAAAUAAAGGAGAAGGCCAAGGGUGAAA [JR_SS002_Sub003]			0.184	0.0984
CAGAGACAUGAGGAUCACCCAUGUAGGAUUAUGGGAGGAUAUACAAAGACGAGAGUCAGAGUAGAAGGCCUAGGAU [salish99-ss1-142]			0.0527	0.0212
AAACAACAUGAGGAUCACCCAUGUCAAACAAAUCGAGGAUAUGGGCAGGAUUCUUCCUAACUAGAAGGCGAAAACA [Esmatidi]			0.0298	0.164
GGAGCCGGCACUGAGGAUAUUCAUAUUAAAACAUGAGGAUCACCCAUGUAGGCCAGAAGGCCUUGGGAGAAGGCAGGUCGGCCCG [Bibimaor]			0.252	0.0185
